Experimental data: article PMC9482650, “Quantitative fragmentomics allow affinity mapping of interactomes” (Nature Communications, 2022)

T1: CARD11, Q9BXL7
T1 sequence (Q9BXL7 662-765, limits assumed, looked up): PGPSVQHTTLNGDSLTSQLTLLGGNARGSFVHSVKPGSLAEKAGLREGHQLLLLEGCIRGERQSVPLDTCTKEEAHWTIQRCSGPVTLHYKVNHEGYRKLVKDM

T2: GRIP1_2, Q9Y3R0
T2 sequence (Q9Y3R0 145-248, limits assumed, looked up): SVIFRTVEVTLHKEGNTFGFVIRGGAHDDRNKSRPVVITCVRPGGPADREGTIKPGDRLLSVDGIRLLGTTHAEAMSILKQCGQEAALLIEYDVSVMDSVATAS

T3: HTRA4, P83105
T3 sequence (P83105 378-476, limits assumed, looked up): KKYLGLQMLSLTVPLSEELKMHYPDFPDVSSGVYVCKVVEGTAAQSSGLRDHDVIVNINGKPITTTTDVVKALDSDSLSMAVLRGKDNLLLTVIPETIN

T4: NHERF3_3, Q5T2W1
T4 sequence (Q5T2W1 238-333, limits assumed, looked up): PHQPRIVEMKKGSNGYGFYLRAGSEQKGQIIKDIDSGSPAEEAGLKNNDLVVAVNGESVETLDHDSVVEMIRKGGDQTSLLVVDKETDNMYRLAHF

T5: NHERF3_4, Q5T2W1
T5 sequence (Q5T2W1 373-468, limits assumed, looked up): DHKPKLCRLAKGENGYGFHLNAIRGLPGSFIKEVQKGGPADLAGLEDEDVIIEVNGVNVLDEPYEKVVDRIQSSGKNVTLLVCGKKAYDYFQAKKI

T6: PDZD2_2, O15018
T6 sequence (O15018 329-429, limits assumed, looked up): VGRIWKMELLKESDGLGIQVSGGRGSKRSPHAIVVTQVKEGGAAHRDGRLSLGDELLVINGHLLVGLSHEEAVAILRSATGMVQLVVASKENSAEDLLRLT

T7: SIPA1L2, Q9P2F8
T7 sequence (Q9P2F8 945-1036, limits assumed, looked up): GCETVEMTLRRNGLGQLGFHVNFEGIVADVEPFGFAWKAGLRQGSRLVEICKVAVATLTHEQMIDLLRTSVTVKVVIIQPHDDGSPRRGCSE

T8: SNTA1, Q13424
T8 sequence (Q13424 82-180, limits assumed, looked up): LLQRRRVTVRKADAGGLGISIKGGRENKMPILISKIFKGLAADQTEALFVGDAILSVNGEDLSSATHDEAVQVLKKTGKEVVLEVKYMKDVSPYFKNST

T9: SNTG1, Q9NSN8
T9 sequence (Q9NSN8 52-150, limits assumed, looked up): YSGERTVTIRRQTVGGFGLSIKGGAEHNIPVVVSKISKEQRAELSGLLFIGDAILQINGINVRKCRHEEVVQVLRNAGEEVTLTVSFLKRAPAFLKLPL

T10: TJP3_3, O95049
T10 sequence (O95049 375-456, limits assumed, looked up): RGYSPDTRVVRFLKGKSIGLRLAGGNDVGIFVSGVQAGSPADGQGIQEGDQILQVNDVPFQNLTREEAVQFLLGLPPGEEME


Biological target: T1, CARD11, Q9BXL7
Assay: holdup assay
Design: key: below the threshold = too weak to quantify, mostly under pKd 3.1 to 4
Details: plain residues with an end cap or a label only (N-terminal biotin on a linker: ado-ado)

Binder	pKd
WAKEKQHTRL [SLC17A1, Q14916]	below the threshold

Biological target: CASK, O14936
Sequence (O14936 487-570): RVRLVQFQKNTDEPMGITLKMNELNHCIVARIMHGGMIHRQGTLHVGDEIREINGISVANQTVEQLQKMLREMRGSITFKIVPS
Assay: holdup assay
Design: key: below the threshold = too weak to quantify, mostly under pKd 3.1 to 4
Details: plain residues with an end cap or a label only (N-terminal biotin on a linker: ado-ado)

Binder	pKd
WAKEKQHTRL [SLC17A1, Q14916]	below the threshold

Biological target: DLG2_2, Q15700
Sequence (Q15700 189-283): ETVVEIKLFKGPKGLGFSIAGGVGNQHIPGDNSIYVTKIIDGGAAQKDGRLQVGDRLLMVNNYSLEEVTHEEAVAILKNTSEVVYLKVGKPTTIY
Assay: holdup assay
Design: key: below the threshold = too weak to quantify, mostly under pKd 3.1 to 4
Details: plain residues with an end cap or a label only (N-terminal biotin on a linker: ado-ado)

Binder	pKd
WAKEKQHTRL [SLC17A1, Q14916]	3.82

Biological target: FRMPD2_1, Q68DX3
Sequence (Q68DX3 770-861): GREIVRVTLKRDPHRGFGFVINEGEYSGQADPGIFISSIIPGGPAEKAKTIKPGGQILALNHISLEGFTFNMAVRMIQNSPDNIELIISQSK
Assay: holdup assay
Design: key: below the threshold = too weak to quantify, mostly under pKd 3.1 to 4
Details: plain residues with an end cap or a label only (N-terminal biotin on a linker: ado-ado)

Binder	pKd
WAKEKQHTRL [SLC17A1, Q14916]	below the threshold

Biological target: GOPC, Q9HD26
Assay: holdup assay
Design: key: below the threshold = too weak to quantify, mostly under pKd 3.1 to 4
Details: plain residues with an end cap or a label only (N-terminal biotin on a linker: ado-ado)

Binder	pKd
WAKEKQHTRL [SLC17A1, Q14916]	4.91

Biological target: T2, GRIP1_2, Q9Y3R0
Assay: holdup assay
Design: key: below the threshold = too weak to quantify, mostly under pKd 3.1 to 4
Details: plain residues with an end cap or a label only (N-terminal biotin on a linker: ado-ado)

Binder	pKd
WAKEKQHTRL [SLC17A1, Q14916]	below the threshold

Biological target: GRIP2_3, Q9C0E4
Sequence (Q9C0E4 238-339): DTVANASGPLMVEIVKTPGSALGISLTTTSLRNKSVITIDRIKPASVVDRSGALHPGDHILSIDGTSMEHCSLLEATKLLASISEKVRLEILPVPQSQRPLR
Assay: holdup assay
Design: key: below the threshold = too weak to quantify, mostly under pKd 3.1 to 4
Details: plain residues with an end cap or a label only (N-terminal biotin on a linker: ado-ado)

Binder	pKd
WAKEKQHTRL [SLC17A1, Q14916]	below the threshold

Biological target: GRIP2_4, Q9C0E4
Sequence (Q9C0E4 446-548): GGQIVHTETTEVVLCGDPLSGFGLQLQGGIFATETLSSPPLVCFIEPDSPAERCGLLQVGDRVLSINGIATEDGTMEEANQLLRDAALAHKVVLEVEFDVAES
Assay: holdup assay
Design: key: below the threshold = too weak to quantify, mostly under pKd 3.1 to 4
Details: plain residues with an end cap or a label only (N-terminal biotin on a linker: ado-ado)

Binder	pKd
WAKEKQHTRL [SLC17A1, Q14916]	below the threshold

Biological target: HTRA1, Q92743
Sequence (Q92743 360-477): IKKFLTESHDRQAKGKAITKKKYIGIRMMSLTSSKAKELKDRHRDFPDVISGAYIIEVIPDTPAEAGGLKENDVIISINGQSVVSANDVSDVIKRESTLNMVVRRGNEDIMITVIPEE
Assay: holdup assay
Design: key: below the threshold = too weak to quantify, mostly under pKd 3.1 to 4
Details: plain residues with an end cap or a label only (N-terminal biotin on a linker: ado-ado)

Binder	pKd
WAKEKQHTRL [SLC17A1, Q14916]	below the threshold

Biological target: T3, HTRA4, P83105
Assay: holdup assay
Design: key: below the threshold = too weak to quantify, mostly under pKd 3.1 to 4
Details: plain residues with an end cap or a label only (N-terminal biotin on a linker: ado-ado)

Binder	pKd
WAKEKQHTRL [SLC17A1, Q14916]	below the threshold

Biological target: Inadl_5, Q8NI35
Sequence (Q8NI35 673-780): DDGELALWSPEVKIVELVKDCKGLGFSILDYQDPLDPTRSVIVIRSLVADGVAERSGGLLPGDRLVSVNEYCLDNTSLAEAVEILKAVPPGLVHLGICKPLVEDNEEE
Assay: holdup assay
Design: key: below the threshold = too weak to quantify, mostly under pKd 3.1 to 4
Details: plain residues with an end cap or a label only (N-terminal biotin on a linker: ado-ado)

Binder	pKd
WAKEKQHTRL [SLC17A1, Q14916]	below the threshold

Biological target: Inadl_6, Q8NI35
Sequence (Q8NI35 1058-1167): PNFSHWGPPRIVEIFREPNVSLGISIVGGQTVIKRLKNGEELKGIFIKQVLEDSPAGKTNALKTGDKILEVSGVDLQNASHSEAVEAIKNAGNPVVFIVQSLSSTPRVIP
Assay: holdup assay
Design: key: below the threshold = too weak to quantify, mostly under pKd 3.1 to 4
Details: plain residues with an end cap or a label only (N-terminal biotin on a linker: ado-ado)

Binder	pKd
WAKEKQHTRL [SLC17A1, Q14916]	below the threshold

Biological target: LDB3, O75112
Sequence (O75112 1-94): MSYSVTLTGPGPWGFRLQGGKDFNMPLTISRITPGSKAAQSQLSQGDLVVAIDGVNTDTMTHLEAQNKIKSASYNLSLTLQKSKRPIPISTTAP
Assay: holdup assay
Design: key: below the threshold = too weak to quantify, mostly under pKd 3.1 to 4
Details: plain residues with an end cap or a label only (N-terminal biotin on a linker: ado-ado)

Binder	pKd
WAKEKQHTRL [SLC17A1, Q14916]	below the threshold

Biological target: LNX1_3, Q8TBB1
Sequence (Q8TBB1 500-596): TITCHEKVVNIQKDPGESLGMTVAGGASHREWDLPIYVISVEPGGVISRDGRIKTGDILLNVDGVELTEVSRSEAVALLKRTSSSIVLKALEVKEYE
Assay: holdup assay
Design: key: below the threshold = too weak to quantify, mostly under pKd 3.1 to 4
Details: plain residues with an end cap or a label only (N-terminal biotin on a linker: ado-ado)

Binder	pKd
WAKEKQHTRL [SLC17A1, Q14916]	below the threshold

Biological target: MAGI2_3, Q86UL8
Sequence (Q86UL8 600-682): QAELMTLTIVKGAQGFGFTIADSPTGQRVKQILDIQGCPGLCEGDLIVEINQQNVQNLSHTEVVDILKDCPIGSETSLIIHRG
Assay: holdup assay
Design: key: below the threshold = too weak to quantify, mostly under pKd 3.1 to 4
Details: plain residues with an end cap or a label only (N-terminal biotin on a linker: ado-ado)

Binder	pKd
WAKEKQHTRL [SLC17A1, Q14916]	below the threshold

Biological target: MAGI2_4, Q86UL8
Sequence (Q86UL8 772-865): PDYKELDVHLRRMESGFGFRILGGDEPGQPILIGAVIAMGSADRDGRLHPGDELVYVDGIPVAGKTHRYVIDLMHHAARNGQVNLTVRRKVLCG
Assay: holdup assay
Design: key: below the threshold = too weak to quantify, mostly under pKd 3.1 to 4
Details: plain residues with an end cap or a label only (N-terminal biotin on a linker: ado-ado)

Binder	pKd
WAKEKQHTRL [SLC17A1, Q14916]	below the threshold

Biological target: MAGI2_5, Q86UL8
Sequence (Q86UL8 915-1017): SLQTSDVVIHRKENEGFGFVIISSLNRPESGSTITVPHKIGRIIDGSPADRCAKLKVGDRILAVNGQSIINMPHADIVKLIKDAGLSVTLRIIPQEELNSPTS
Assay: holdup assay
Design: key: below the threshold = too weak to quantify, mostly under pKd 3.1 to 4
Details: plain residues with an end cap or a label only (N-terminal biotin on a linker: ado-ado)

Binder	pKd
WAKEKQHTRL [SLC17A1, Q14916]	below the threshold

Biological target: MAST1, Q9Y2H9
Sequence (Q9Y2H9 962-1065): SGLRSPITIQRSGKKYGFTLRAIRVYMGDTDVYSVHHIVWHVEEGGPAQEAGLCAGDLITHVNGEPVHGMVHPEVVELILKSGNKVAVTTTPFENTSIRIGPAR
Assay: holdup assay
Design: key: below the threshold = too weak to quantify, mostly under pKd 3.1 to 4
Details: plain residues with an end cap or a label only (N-terminal biotin on a linker: ado-ado)

Binder	pKd
WAKEKQHTRL [SLC17A1, Q14916]	4.89

Biological target: T4, NHERF3_3, Q5T2W1
Assay: holdup assay
Design: key: below the threshold = too weak to quantify, mostly under pKd 3.1 to 4
Details: plain residues with an end cap or a label only (N-terminal biotin on a linker: ado-ado)

Binder	pKd
WAKEKQHTRL [SLC17A1, Q14916]	4.28

Biological target: T5, NHERF3_4, Q5T2W1
Assay: holdup assay
Design: key: below the threshold = too weak to quantify, mostly under pKd 3.1 to 4
Details: plain residues with an end cap or a label only (N-terminal biotin on a linker: ado-ado)

Binder	pKd
WAKEKQHTRL [SLC17A1, Q14916]	4.11

Biological target: NHERF4_2, Q86UT5
Sequence (Q86UT5 220-308): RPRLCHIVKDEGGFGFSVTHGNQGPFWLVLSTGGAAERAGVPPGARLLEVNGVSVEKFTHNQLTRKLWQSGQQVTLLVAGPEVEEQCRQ
Assay: holdup assay
Design: key: below the threshold = too weak to quantify, mostly under pKd 3.1 to 4
Details: plain residues with an end cap or a label only (N-terminal biotin on a linker: ado-ado)

Binder	pKd
WAKEKQHTRL [SLC17A1, Q14916]	below the threshold

Biological target: T6, PDZD2_2, O15018
Assay: holdup assay
Design: key: below the threshold = too weak to quantify, mostly under pKd 3.1 to 4
Details: plain residues with an end cap or a label only (N-terminal biotin on a linker: ado-ado)

Binder	pKd
WAKEKQHTRL [SLC17A1, Q14916]	below the threshold

Biological target: PICK1, Q9NRD5
Sequence (Q9NRD5 17-115): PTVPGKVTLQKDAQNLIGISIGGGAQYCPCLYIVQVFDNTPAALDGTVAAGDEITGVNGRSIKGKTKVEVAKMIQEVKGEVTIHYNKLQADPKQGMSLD
Assay: holdup assay
Design: key: below the threshold = too weak to quantify, mostly under pKd 3.1 to 4
Details: plain residues with an end cap or a label only (N-terminal biotin on a linker: ado-ado)

Binder	pKd
WAKEKQHTRL [SLC17A1, Q14916]	below the threshold

Biological target: PTPN3, P26045
Sequence (P26045 505-587): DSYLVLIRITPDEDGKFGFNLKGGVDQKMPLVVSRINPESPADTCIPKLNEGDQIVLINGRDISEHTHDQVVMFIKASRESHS
Assay: holdup assay
Design: key: below the threshold = too weak to quantify, mostly under pKd 3.1 to 4
Details: plain residues with an end cap or a label only (N-terminal biotin on a linker: ado-ado)

Binder	pKd
WAKEKQHTRL [SLC17A1, Q14916]	3.85

Biological target: SCRIB_2, Q14160
Sequence (Q14160 857-960): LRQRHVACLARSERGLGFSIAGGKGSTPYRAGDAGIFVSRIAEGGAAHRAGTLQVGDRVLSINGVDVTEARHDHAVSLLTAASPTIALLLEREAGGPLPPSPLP
Assay: holdup assay
Design: key: below the threshold = too weak to quantify, mostly under pKd 3.1 to 4
Details: plain residues with an end cap or a label only (N-terminal biotin on a linker: ado-ado)

Binder	pKd
WAKEKQHTRL [SLC17A1, Q14916]	below the threshold

Biological target: T7, SIPA1L2, Q9P2F8
Assay: holdup assay
Design: key: below the threshold = too weak to quantify, mostly under pKd 3.1 to 4
Details: plain residues with an end cap or a label only (N-terminal biotin on a linker: ado-ado)

Binder	pKd
WAKEKQHTRL [SLC17A1, Q14916]	below the threshold

Biological target: T8, SNTA1, Q13424
Assay: holdup assay
Design: key: below the threshold = too weak to quantify, mostly under pKd 3.1 to 4
Details: plain residues with an end cap or a label only (N-terminal biotin on a linker: ado-ado)

Binder	pKd
WAKEKQHTRL [SLC17A1, Q14916]	3.77

Biological target: T9, SNTG1, Q9NSN8
Assay: holdup assay
Design: key: below the threshold = too weak to quantify, mostly under pKd 3.1 to 4
Details: plain residues with an end cap or a label only (N-terminal biotin on a linker: ado-ado)

Binder	pKd
WAKEKQHTRL [SLC17A1, Q14916]	below the threshold

Biological target: T10, TJP3_3, O95049
Assay: holdup assay
Design: key: below the threshold = too weak to quantify, mostly under pKd 3.1 to 4
Details: plain residues with an end cap or a label only (N-terminal biotin on a linker: ado-ado)

Binder	pKd
WAKEKQHTRL [SLC17A1, Q14916]	below the threshold
